Reference: patent publication US20230203142A1, “TREATMENT OF METABOLIC DISORDERS THROUGH THE TARGETING OF A NOVEL CIRCULATING HORMONE COMPLEX” (The President and Fellows of Harvard College, priority 2020, published 2023)

Key:
NOD mice = assay: a-Ab treatment in NOD model of T1D; format: in vivo, mouse
Experimental: WT female NOD mice matched for age, weight, blood glucose, plasma insulin, and circulating FABP4 levels were utilized to explore the effect of antibody-mediated FABP4 targeting in the context of T1D, (FIGS. 2D-G). Mice were treated twice weekly with a-Ab, PBS, or a control antibody of the same isotype (c-Ab) starting at 10 weeks of age, when insulitis had already been established. […] Collectively, a-Ab-mediated protection against T1D and improvement of glycemic control in a DIO model of T2D are both associated with improved beta cell mass and function.
To investigate the contribution of proliferation to the increase in beta cell mass, NOD mice were treated with BrdU along with a-Ab, c-Ab, or PBS for 5 weeks beginning at 10 weeks of age. […] This difference is likely associated with the pro-proliferative environment of DIO as compared to the NOD model. […] Thus, targeting the FABP4-ADK-NDPK complex with a-Ab preserves beta cell mass and enhances beta cell function to protect against diabetes.
Pancreata were dissected and fixed in 10% zinc buffered formalin for 24-48 hrs before being washed and stored in 70% ethanol. Samples were paraffin embedded, and sectioned in steps 250 μm apart. Immunostaining for insulin, glucagon, BrdU and Cleaved Caspase 3 was performed as described previously (Prentice et al., 2014; Rezania et al., 2014). Images of each section were acquired using Aperio Imagescope at 20× magnification. The beta- or alpha-cell area was calculated by using positive pixel count analysis (Aperio ImageScope). Islet number and size was determined by manually circling insulin positive clusters in the Aperio ImageScope software. Two blinded individuals independently performed manual analysis and insulitis scoring.

recombinant ADK = target: T1, recombinant ADK (Homo sapiens, UniProt P55263); assay: Recombinant kinase activity assay, ADK (Kinase-Glo); format: biochemical
T1 construct: purchased Novus Biologicals or R&D Systems NBP1-44382 or 8024-AK-025
Experimental: An on-bead kinase assay was developed to measure the activity of endogenous NDPK and ADK pulled down from serum using a-Ab or c-Ab conjugated beads. Both NDPK and ADK are bi-directional kinases that will produce ATP or ADP depending on the substrates provided (FIGS. 4B-C). Kinase activity assays were performed in 384-well plates in reaction buffer (PBS with 0.1% BSA, 0.01% F-127, 5 mM MgCl2). Experiments with recombinant proteins were performed at final concentrations of 40 μg/ml for ADK and FABP4, and 20 ug/ml for NDPK, and a reaction volume of 10 μl. Antibodies were used at a final concentration of 80 ug/ml. Substrates were added in equimolar ratios depending on the kinase being assayed and the direction of the reaction in serial dose responses, with the highest concentration of 5 μM. Proteins and substrates were incubated for 1 hr at room temperature, and ADP and ATP production were monitored using ADP-Glo and Kinase-Glo kits, respectively, according the manufacturer instructions (V6930 and V6711 Promega, USA). Luminescence was quantified using a SpectraMax Paradigm plate reader 30 min after the addition of substrate. Consistent with the MS results, ADK activity, as measured by generation of ATP, was specifically observed in samples pulled down with a-Ab but not c-Ab (FIG. 5A). […] To test this possibility, the ATP and ADP generating activity of recombinant ADK was assessed in the presence of the proposed complex components.

primary human islets = assay: Glucose-stimulated insulin secretion (GSIS), human islets; format: cell-based
Experimental: Primary islet isolation from mice was performed as previously described (Batchuluun et al., 2018; Prentice et al., 2014) and GSIS was assessed following acute treatment with NDPK-ADK in the presence or absence of FABP4. Insulin secretion assays were performed as previously described (Prentice et al., 2014). For primary islets, 20 islets were hand-picked into 1.5 ml tubes, washed twice with Krebs Ringer Buffer (KRB) without glucose, and pre-incubated in 500 μl low glucose (LG; 2.8 mM) KRB for 1 hour at 37° C. KRB was then removed and 250 μl of fresh LG KRB added. Islets were incubated for 20 minutes at 37° C. Supernatant was collected and 250 μl high glucose (HG; 16.7 mM) KRB added. Islets were incubated for 20 minutes at 37° C. In conditions where KCl was used, HG KRB was collected, and 250 μl KC1 (16.7 mM glucose, 30 mM KCl) KRB added. Islets were incubated for 20 minutes at 37° C., and supernatant collected. Following the stimulation protocol, cells were lysed in 100 μl acid ethanol (70% ethanol, 1% HCl in water) and stored at 4° C. overnight. Samples were evaporated using a SpeedVac until dried, and resuspended in 60 μl ultrapure water. DNA was quantified by Nanodrop (ThermoFisher, USA). Insulin from supernatant was quantified using insulin HTRF (Insulin Ultrasensitive Assay kit 62IN2PEH; Cisbio, USA). […]

[1] = among the mice that developed diabetes

T1 sequence (P55263 whole entry): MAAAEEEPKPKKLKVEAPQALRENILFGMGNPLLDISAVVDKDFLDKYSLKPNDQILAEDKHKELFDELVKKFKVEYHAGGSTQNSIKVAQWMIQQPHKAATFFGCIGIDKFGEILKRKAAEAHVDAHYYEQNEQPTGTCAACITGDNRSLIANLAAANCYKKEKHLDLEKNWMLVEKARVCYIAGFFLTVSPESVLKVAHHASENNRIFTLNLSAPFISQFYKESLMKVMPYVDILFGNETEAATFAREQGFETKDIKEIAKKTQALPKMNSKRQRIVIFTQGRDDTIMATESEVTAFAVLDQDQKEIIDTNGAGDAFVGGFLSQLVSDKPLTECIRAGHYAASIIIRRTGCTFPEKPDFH

B1: a-Ab: monoclonal antibody previously reported as CA33; heavy chain SEQ ID NO 446, light chain SEQ ID NO 447; binds FABP4 and NDPK (antibody, listed as Homo sapiens)
heavy: QSVEESGGRLVTPGTPLTLTCTVSGFSLSTYYMSWVRQAPGKGLEWIGIIYPSGSTYCASWAKGRFTISKASTTVDLKITSPTTEDTATYFCARPDNDGTSGYLSGFGLWGQGLVTVSSAKTTPPSVYPLAPGSAAQTNSMVTLGCLVKGYFPEPVTVTWNSGSLSSGVHTFPAVLQSDLYTLSSSVTVPSSTWPSETVTCNVAHPASSTKVDKKIVPRDC
light: DVVMTQTPASVSEPVGGTVTIKCGASEDISRYLVWYQQKPGQPPKRLIYKASTLASGVPSRFKGSGSGTDFTLTISDLECDDAATYYCQCTYGTYAGSFFYSFGGGTEVVVERTDAAPTVSIFPPSSEQLTSGGASVVCFLNNFYPKDINVKWKIDGSERQNGVLNSWTDQDSKDCTYSMSSTLTLTKDEYERHNSYTCEATHKTSTSPIVKSFNRNEC
In the case of B1, the “overall number of BrdU positive beta cells” value (NOD mice; NOD mice, 5 weeks, compared to c-Ab) is reported as “no significant difference”, the “islet number and beta cell mass” value (NOD mice; NOD mice, compared to c-Ab-treated controls) is reported as “significant increase” and the “CC3 positive beta cells” value (NOD mice; NOD model, vs controls) is reported as “profound reduction”. The blood glucose (NOD mice; [1]) was “significantly reduced”, the plasma insulin levels (NOD mice; [1]) was “higher” and the “body weight, plasma insulin, or blood glucose levels” value (NOD mice; among the non-diabetic mice, throughout the study) was “no significant differences”. For the same molecule, the “development of T1D” value (NOD mice; female NOD mice, twice weekly from 10 weeks of age) was “significantly protected”, the “GSIS both in vivo and ex vivo” value (NOD mice; non-diabetic NOD mice) was “improved” and the “glycemic control during GTT” value (NOD mice; non-diabetic NOD mice) was “improved”. For the same molecule, the glucagon positive area (NOD mice; pancreatic sections, NOD mice) was “significant reduction”, the “ADK activity to produce ATP” value (recombinant ADK; added to the NDPK-ADK/FABP4 complex, compared to the complex alone) was “no effect” and the “ADK activity to generate ATP” value (recombinant ADK; recombinant ADK plus the added component) was “no effect”. The “GSIS in response to the NDPK-ADK/FABP4 complex” value (primary human islets) was “rescued”.
